Values of other authors as cited in PMC3128382.

Target: TbpA (Neisseria gonorrhoeae) (UniProt Q01996)
Sequence of UniProt Q01996 (Q01996 25-915): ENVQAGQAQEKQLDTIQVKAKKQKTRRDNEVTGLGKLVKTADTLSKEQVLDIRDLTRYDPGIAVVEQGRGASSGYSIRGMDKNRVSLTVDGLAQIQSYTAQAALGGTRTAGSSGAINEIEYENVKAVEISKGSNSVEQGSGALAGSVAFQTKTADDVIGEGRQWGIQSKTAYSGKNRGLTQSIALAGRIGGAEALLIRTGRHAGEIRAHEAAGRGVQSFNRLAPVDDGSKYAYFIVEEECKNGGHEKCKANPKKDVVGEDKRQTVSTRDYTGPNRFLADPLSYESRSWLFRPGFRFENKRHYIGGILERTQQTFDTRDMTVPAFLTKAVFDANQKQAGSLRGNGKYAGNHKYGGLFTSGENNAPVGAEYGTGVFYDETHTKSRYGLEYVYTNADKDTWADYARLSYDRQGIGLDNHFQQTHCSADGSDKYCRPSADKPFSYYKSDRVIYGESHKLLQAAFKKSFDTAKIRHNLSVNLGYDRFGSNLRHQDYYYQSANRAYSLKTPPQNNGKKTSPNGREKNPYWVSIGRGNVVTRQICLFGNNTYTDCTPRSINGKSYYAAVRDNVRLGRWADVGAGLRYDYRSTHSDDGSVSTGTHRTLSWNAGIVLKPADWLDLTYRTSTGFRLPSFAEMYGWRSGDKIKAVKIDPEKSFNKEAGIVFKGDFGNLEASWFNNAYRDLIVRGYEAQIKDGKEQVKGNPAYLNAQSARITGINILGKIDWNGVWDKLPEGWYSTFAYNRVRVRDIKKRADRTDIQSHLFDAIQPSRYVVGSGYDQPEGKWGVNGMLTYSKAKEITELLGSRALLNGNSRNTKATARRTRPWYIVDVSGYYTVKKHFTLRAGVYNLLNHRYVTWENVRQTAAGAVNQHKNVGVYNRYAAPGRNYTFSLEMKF

In the case of Transferrin (from UniProt P02787), the Kd is listed as 10 nM.
